The text below walks through data of patent publication US6685932.

The target of assay [1] is T1, extracellular domain of the IL-4Rα (IL-4 binding protein), P24394. Briefly: biosensor (BIA2000), IL4BP biotinylated at Cys-206 on a streptavidin matrix, 25 C.
The target of assay [2] is T1, extracellular domain of the IL-4Rα …. Briefly: biosensor (BIA2000), IL4BP on a streptavidin matrix, room temperature.
For assay [3] the target is unchanged. Briefly: biosensor (BIA2000), compared with MAR-IL4.

T1 sequence (P24394 26-232 limits assumed): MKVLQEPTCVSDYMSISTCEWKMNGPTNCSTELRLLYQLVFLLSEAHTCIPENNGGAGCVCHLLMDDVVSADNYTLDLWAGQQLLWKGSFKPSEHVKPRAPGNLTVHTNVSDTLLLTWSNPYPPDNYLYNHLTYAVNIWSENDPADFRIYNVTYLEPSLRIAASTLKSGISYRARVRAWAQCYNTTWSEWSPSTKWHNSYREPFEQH

For orientation: Kd means the equilibrium constant for the complex coming apart. Higher therefore signals lower affinity. RMKQLEKKVERLLKRNYRLENEVARLKKLVG (modifications not checked) [Model 2a]: the dissociation constant (Kd) in assay [1] worked out at 2160 µM; in assay [2], 2000 µM.

RMKQLEKKVERLLKRNYRLEWEVIRCKKLVG (modifications not checked) [26CMAR-IL4] displayed a fold increase in binding affinity against MAR-IL4 in assay [3] of 5 fold. In assay [1], the equilibrium dissociation constant (Kd) lay in the range of 5 to 10 µM.

Molecule RMKQLEKKVERLLKRNYRLENEVIRLKKLVG (modifications not checked) [Model 2b] had a Kd in assay [1] of 193 µM.

The molecule RMKQLEKKVERLLKRNYRLEWEVIRLKKLVG (modifications not checked) [MAR-IL4] came in with a Kd in assay [1] of 26 µM.

For RMKQLEKKVERLLKRNYRLEWEVARLKKLVG (modifications not checked) [Model 2c], the Kd was determined as 106 µM in assay [1] and 100 µM in assay [2].

Regarding RMKQLEKKVERCLKRNYRLEWEVIRLKKLVG (modifications not checked) [12CMAR-IL4], in assay [3], the fold increase in binding affinity against MAR-IL4 amounted to 5 fold. In assay [1], this molecule registered a dissociation constant (Kd) of 5 µM.

Molecule RMKQLEKKVERCLKRLYRNEWEVIRLKKLVG (modifications not checked) [12CNMAR-IL4] registered a dissociation constant (Kd) in assay [1] of 5 µM.
